US20240209078A1 (Amgen, published 2024)
Blank lines part the entries; values can stand above or below the binder they belong to.

How the values were obtained:
Test in all cases: cell-based or functional assay
human MSLN (mesothelin) [1] = target: T1, human MSLN (mesothelin) (human, UniProt Q13421 37-598)
[2] = target: T2, human CDH3 (Cadherin-3, P-Cadherin) (human, UniProt P22223 108-829)
human MSLN (mesothelin) [3] = target: T1, human MSLN (mesothelin); remark: listed apart in the source
[4] = target: T2, human CDH3 (Cadherin-3, P-Cadherin); remark: listed apart in the source
human MSLN = human MSLN (human, UniProt Q13421 37-598)
human CDH3 = human CDH3 (human, UniProt P22223 108-829)

B1: MS 15-B12 CC × I2L × G4 × scFc × G4 × CH3 15-E11 CC × I2L_GQ (bispecific antibody)
chain: QVQLQESGPGLVKPSETLSLTCTVSGGSISSSSYFWGWIRQPPGKCLEWIGNIYYSGSSNYNPSLKSRVTISVDTSKNQFSLKLSSVTAADTAVYYCARLPRGDRDAFDIWGQGTMVTVSSGGGGQGGGGQGGGGQDIVMTQSPSSLSASVGDRVTITCRASQGISNYLAWYQQKPGKVPKLLIYAASTLQSGVPSRFSGSGSGTDFTLTISSLQPEDFATYYCQQSYSTPFTFGCGTKVEIKSGGGGQEVQLVESGGGLVQPGGSLKLSCAASGFTFNKYAMNWVRQAPGKGMEWVARIRSKYNNYATYYADAVKDRFTISRDDSKNTLYLQMNNLKTEDTAVYYCVRAGNFGSSYISYFAYWGQGTLVTVSSGGGGQGGGGQGGGGQQTVVTQEPSLTVSPGGTVTITCGSSTGAVTSGNYPNWIQKKPGQAPRGLIGGTKFLAPGTPARFSGSLEGGKAALTLSGVQPEDEAEYYCVLYYSNRWVFGSGTKLTVLGGGGCPPCPAPELLGGPSVFLFPPKPKDTLMISRTPEVTCVVVDVSHEEPEVKFNWYVDGVEVHNAKTKPCEEQYGSTYRCVSVLTVLHQDWLNGKEYKCKVSNKALPAPIEKTISKAKGQPREPQVYTLPPSREEMTKNQVSLTCLVKGFYPSDIAVEWESNGQPENNYKTTPPVLDSDGSFFLYSKLTVDKSRWQQGNVFSCSVMHEALHNHYTQKSLSLSPGKGGGGQGGGGQGGGGQGGGGQGGGGQGGGGQCPPCPAPELLGGPSVFLFPPKPKDTLMISRTPEVTCVVVDVSHEEPEVKFNWYVDGVEVHNAKTKPCEEQYGSTYRCVSVLTVLHQDWLNGKEYKCKVSNKALPAPIEKTISKAKGQPREPQVYTLPPSREEMTKNQVSLTCLVKGFYPSDIAVEWESNGQPENNYKTTPPVLDSDGSFFLYSKLTVDKSRWQQGNVFSCSVMHEALHNHYTQKSLSLSPGKGGGGQVQLVQSGAEVKKPGASVKVSCKASGYTFTNYWMNWVRQAPGQCLEWMGNIAYGVKGTNYNQKFQGRVTMTVDTSSSTAYMELSRLRSDDTAVYYCATRYFYVMDYWGQGTLVTVSSGGGGQGGGGQGGGGQDIQMTQSPSSLSASVGDRVTITCRASQDISNYLNWYQQKPGKVPKLLIYYTSRLHSGVPSRFSGSGSGTDFTLTISSLQPEDVATYYCVQYAQFPLTFGCGTKVEIKSGGGGQEVQLVESGGGLVQPGGSLKLSCAASGFTFNKYAMNWVRQAPGKGMEWVARIRSKYNNYATYYADAVKDRFTISRDDSKNTLYLQMNNLKTEDTAVYYCVRAGNFGSSYISYFAYWGQGTLVTVSSGGGGQGGGGQGGGGQQTVVTQEPSLTVSPGGTVTITCGSSTGAVTSGNYPNWIQKKPGQAPRGLIGGTKFLAPGTPARFSGSLEGGKAALTLSGVQPEDEAEYYCVLYYSNRWVFGSGTKLTVL
- cytotoxicity EC50, HCT 116 KO CDH3 cells (human MSLN (mesothelin) [1]): 0.0445 nM
- cytotoxicity EC50, HCT 116 KO MSLN cells [2]: 0.001 nM
- cytotoxicity EC50, GSU KO CDH3 cells (human MSLN (mesothelin) [3]): 0.115 nM
- cytotoxicity EC50, GSU KO MSLN cells [4]: 0.502 nM

B2: CH3 15-E11 CC × I2L × (G4Q)3 × scFc × (G4Q)3 × MS 15-B12 CC × I2L (bispecific antibody)
chain: QVQLVQSGAEVKKPGASVKVSCKASGYTFTNYWMNWVRQAPGQCLEWMGNIAYGVKGTNYNQKFQGRVTMTVDTSSSTAYMELSRLRSDDTAVYYCATRYFYVMDYWGQGTLVTVSSGGGGQGGGGQGGGGQDIQMTQSPSSLSASVGDRVTITCRASQDISNYLNWYQQKPGKVPKLLIYYTSRLHSGVPSRFSGSGSGTDFTLTISSLQPEDVATYYCVQYAQFPLTFGCGTKVEIKSGGGGQEVQLVESGGGLVQPGGSLKLSCAASGFTFNKYAMNWVRQAPGKGMEWVARIRSKYNNYATYYADAVKDRFTISRDDSKNTLYLQMNNLKTEDTAVYYCVRAGNFGSSYISYFAYWGQGTLVTVSSGGGGQGGGGQGGGGQQTVVTQEPSLTVSPGGTVTITCGSSTGAVTSGNYPNWIQKKPGQAPRGLIGGTKFLAPGTPARFSGSLEGGKAALTLSGVQPEDEAEYYCVLYYSNRWVFGSGTKLTVLGGGGQGGGGQGGGGQCPPCPAPELLGGPSVFLFPPKPKDTLMISRTPEVTCVVVDVSHEEPEVKFNWYVDGVEVHNAKTKPCEEQYGSTYRCVSVLTVLHQDWLNGKEYKCKVSNKALPAPIEKTISKAKGQPREPQVYTLPPSREEMTKNQVSLTCLVKGFYPSDIAVEWESNGQPENNYKTTPPVLDSDGSFFLYSKLTVDKSRWQQGNVFSCSVMHEALHNHYTQKSLSLSPGKGGGGQGGGGQGGGGQGGGGQGGGGQGGGGQCPPCPAPELLGGPSVFLFPPKPKDTLMISRTPEVTCVVVDVSHEEPEVKFNWYVDGVEVHNAKTKPCEEQYGSTYRCVSVLTVLHQDWLNGKEYKCKVSNKALPAPIEKTISKAKGQPREPQVYTLPPSREEMTKNQVSLTCLVKGFYPSDIAVEWESNGQPENNYKTTPPVLDSDGSFFLYSKLTVDKSRWQQGNVFSCSVMHEALHNHYTQKSLSLSPGKGGGGQGGGGQGGGGQQVQLQESGPGLVKPSETLSLTCTVSGGSISSSSYFWGWIRQPPGKCLEWIGNIYYSGSSNYNPSLKSRVTISVDTSKNQFSLKLSSVTAADTAVYYCARLPRGDRDAFDIWGQGTMVTVSSGGGGQGGGGQGGGGQDIVMTQSPSSLSASVGDRVTITCRASQGISNYLAWYQQKPGKVPKLLIYAASTLQSGVPSRFSGSGSGTDFTLTISSLQPEDFATYYCQQSYSTPFTFGCGTKVEIKSGGGGQEVQLVESGGGLVQPGGSLKLSCAASGFTFNKYAMNWVRQAPGKGMEWVARIRSKYNNYATYYADAVKDRFTISRDDSKNTLYLQMNNLKTEDTAVYYCVRAGNFGSSYISYFAYWGQGTLVTVSSGGGGQGGGGQGGGGQQTVVTQEPSLTVSPGGTVTITCGSSTGAVTSGNYPNWIQKKPGQAPRGLIGGTKFLAPGTPARFSGSLEGGKAALTLSGVQPEDEAEYYCVLYYSNRWVFGSGTKLTVL
- cytotoxicity EC50, HCT 116 KO CDH3 cells (human MSLN (mesothelin) [1]): 0.0226 nM
- cytotoxicity EC50, HCT 116 KO MSLN cells [2]: 0.0085 nM
- cytotoxicity EC50, GSU KO CDH3 cells (human MSLN (mesothelin) [3]): 0.171 nM
- cytotoxicity EC50, GSU KO MSLN cells [4]: 3.33 nM

- Fold selectivity gap, GSU KO CDH3 against GSU wt (human MSLN): 121 fold
- Fold selectivity gap, GSU KO MSLN against GSU wt (human CDH3): 165 fold
B3: MS 15-B12 CC × 6H10.09 × (G4) × heFc (A) * heFc (B) × (G4) × CH3 15-E11 CC × 6H10.09 (Seq ID 326 + 327) (bispecific antibody)
chain 1: not shown
chain 2: DKTHTCPPCPAPELLGGPSVFLFPPKPKDTLMISRTPEVTCVVVDVSHEDPEVKFNWYVDGVEVHNAKTKPCEEQYGSTYRCVSVLTVLHQDWLNGKEYKCKVSNKALPAPIEKTISKAKGQPREPQVYTLPPSRKEMTKNQVSLTCLVKGFYPSDIAVEWESNGQPENNYKTTPPVLKSDGSFFLYSKLTVDKSRWQQGNVFSCSVMHEALHNHYTQKSLSLSPGKGGGGQVQLVQSGAEVKKPGASVKVSCKASGYTFTNYWMNWVRQAPGQCLEWMGNIAYGVKGTNYNQKFQGRVTMTVDTSSSTAYMELSRLRSDDTAVYYCATRYFYVMDYWGQGTLVTVSSGGGGSGGGGSGGGGSDIQMTQSPSSLSASVGDRVTITCRASQDISNYLNWYQQKPGKVPKLLIYYTSRLHSGVPSRFSGSGSGTDFTLTISSLQPEDVATYYCVQYAQFPLTFGCGTKVEIKSGGGGSEVQLVESGGGLVQPGGSLKLSCAASGFTFNKYAMNWVRQAPGKGMEWVARIRSKYNNYATYYADAVKDRFTISRDDSKNTLYLQMNNLKTEDTAVYYCVRAGNFGSSYISYFAYWGQGTLVTVSSGGGGSGGGGSGGGGSQTVVTQEPSLTVSPGGTVTITCGSSTGAVTSGNYPNWIQKKPGQAPRGLIGGTKFLAPGTPARFSGSLEGGKAALTLSGVQPEDEAEYYCVLYYSNRWVFGSGTKLTVL
- EC50 GSU KO CDH3 (cytotoxicity; cells CDH3-, MSLN+) (human MSLN): 0.391 nM
- EC50 GSU wt (cytotoxicity; cells CDH3+, MSLN+) (human MSLN): 0.0032 nM
- EC50 GSU KO MSLN (cytotoxicity; cells CDH3+, MSLN-) (human CDH3): 0.533 nM
- EC50 GSU wt (cytotoxicity; cells CDH3+, MSLN+) (human CDH3): 0.0032 nM

B4: MS 15-B12 CC × I2L × (G4Q)3 × scFc × (G4Q)3 × CH3 15-E11 CC × I2L (bispecific antibody)
chain: QVQLQESGPGLVKPSETLSLTCTVSGGSISSSSYFWGWIRQPPGKCLEWIGNIYYSGSSNYNPSLKSRVTISVDTSKNQFSLKLSSVTAADTAVYYCARLPRGDRDAFDIWGQGTMVTVSSGGGGQGGGGQGGGGQDIVMTQSPSSLSASVGDRVTITCRASQGISNYLAWYQQKPGKVPKLLIYAASTLQSGVPSRFSGSGSGTDFTLTISSLQPEDFATYYCQQSYSTPFTFGCGTKVEIKSGGGGQEVQLVESGGGLVQPGGSLKLSCAASGFTFNKYAMNWVRQAPGKGMEWVARIRSKYNNYATYYADAVKDRFTISRDDSKNTLYLQMNNLKTEDTAVYYCVRAGNFGSSYISYFAYWGQGTLVTVSSGGGGQGGGGQGGGGQQTVVTQEPSLTVSPGGTVTITCGSSTGAVTSGNYPNWIQKKPGQAPRGLIGGTKFLAPGTPARFSGSLEGGKAALTLSGVQPEDEAEYYCVLYYSNRWVFGSGTKLTVLGGGGQGGGGQGGGGQCPPCPAPELLGGPSVFLFPPKPKDTLMISRTPEVTCVVVDVSHEEPEVKFNWYVDGVEVHNAKTKPCEEQYGSTYRCVSVLTVLHQDWLNGKEYKCKVSNKALPAPIEKTISKAKGQPREPQVYTLPPSREEMTKNQVSLTCLVKGFYPSDIAVEWESNGQPENNYKTTPPVLDSDGSFFLYSKLTVDKSRWQQGNVFSCSVMHEALHNHYTQKSLSLSPGKGGGGQGGGGQGGGGQGGGGQGGGGQGGGGQCPPCPAPELLGGPSVFLFPPKPKDTLMISRTPEVTCVVVDVSHEEPEVKFNWYVDGVEVHNAKTKPCEEQYGSTYRCVSVLTVLHQDWLNGKEYKCKVSNKALPAPIEKTISKAKGQPREPQVYTLPPSREEMTKNQVSLTCLVKGFYPSDIAVEWESNGQPENNYKTTPPVLDSDGSFFLYSKLTVDKSRWQQGNVFSCSVMHEALHNHYTQKSLSLSPGKGGGGQGGGGQGGGGQQVQLVQSGAEVKKPGASVKVSCKASGYTFTNYWMNWVRQAPGQCLEWMGNIAYGVKGTNYNQKFQGRVTMTVDTSSSTAYMELSRLRSDDTAVYYCATRYFYVMDYWGQGTLVTVSSGGGGQGGGGQGGGGQDIQMTQSPSSLSASVGDRVTITCRASQDISNYLNWYQQKPGKVPKLLIYYTSRLHSGVPSRFSGSGSGTDFTLTISSLQPEDVATYYCVQYAQFPLTFGCGTKVEIKSGGGGQEVQLVESGGGLVQPGGSLKLSCAASGFTFNKYAMNWVRQAPGKGMEWVARIRSKYNNYATYYADAVKDRFTISRDDSKNTLYLQMNNLKTEDTAVYYCVRAGNFGSSYISYFAYWGQGTLVTVSSGGGGQGGGGQGGGGQQTVVTQEPSLTVSPGGTVTITCGSSTGAVTSGNYPNWIQKKPGQAPRGLIGGTKFLAPGTPARFSGSLEGGKAALTLSGVQPEDEAEYYCVLYYSNRWVFGSGTKLTVL
- cytotoxicity EC50, HCT 116 KO CDH3 cells (human MSLN (mesothelin) [1]): 0.0292 nM
- cytotoxicity EC50, HCT 116 KO MSLN cells [2]: 0.0035 nM
- cytotoxicity EC50, GSU KO CDH3 cells (human MSLN (mesothelin) [3]): 2.9 nM
- cytotoxicity EC50, GSU KO MSLN cells [4]: 1.73 nM
